B6: LaC, C-terminal La fragment aa194-408 (domain or fragment, human, UniProt P05455 194-408, looked up)
chain: EERKQNKVEAKLRAKQEQEAKQKLEEDAEMKSLEEKIGCLLKFSGDLDDQTCREDLHILFSNHGEIKWIDFVRGAKEGIILFKEKAKEALGKAKDANNGNLQLRNKEVTWEVLEGEVEKEALKKIIEDQQESLNKWKSKGRRFKGKGKGNKAAQPGSGKGKVQFQGKKTKFASDDEHDEHDENGATGPVKRAREETDKEEPASKQQKTENGAGDQ

Columns and labels:
[1] = molecular target: T1, full-length human La protein (La 1-408) (human, UniProt P05455 1-408); assay: SPR; full-length human La protein (La1-408) covalently linked to the sensor chip; BSA-coupled chip as control; La 1-408 or deletion mutants as analytes; settings: both partners purified
T1 construct: Cloned into pET28b; also called La/SS-B; wild-type La protein
T1 sequence (looked up): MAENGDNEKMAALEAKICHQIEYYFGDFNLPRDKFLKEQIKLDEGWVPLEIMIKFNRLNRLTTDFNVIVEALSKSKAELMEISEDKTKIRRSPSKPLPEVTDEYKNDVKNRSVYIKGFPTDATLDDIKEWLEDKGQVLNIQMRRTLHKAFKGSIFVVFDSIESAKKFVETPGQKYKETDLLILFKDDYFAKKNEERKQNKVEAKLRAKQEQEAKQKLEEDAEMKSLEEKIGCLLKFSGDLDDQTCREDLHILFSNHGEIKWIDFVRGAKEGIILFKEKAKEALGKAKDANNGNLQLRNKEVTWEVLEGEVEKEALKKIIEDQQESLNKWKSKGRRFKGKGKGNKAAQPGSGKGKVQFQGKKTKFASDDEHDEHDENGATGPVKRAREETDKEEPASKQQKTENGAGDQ

[2] = molecular target: the molecule itself; assay: non-reducing SDS-PAGE and immunoblotting; purified La proteins as isolated (untreated) or treated with 2 mM CuSO4 (oxidized), sample buffer without ß-mercaptoethanol; blots with anti-La mAb SW5 or 7B6; shows only species held by disulfide bridges
[3] = molecular target: B6; assay: far-Western, overlay or dot blot; His-tagged La fragments separated by SDS-PAGE and blotted; after blocking the membrane was incubated with unlabeled full-length La protein (or LaN); bound probe detected with the anti-La mAb SW5 (Figure 5C also with 5B9); settings: both partners purified
[4] = molecular target: T1, full-length human La protein (La 1-408); assay: as above; settings: both partners purified

B1: La 1-245 (domain or fragment, human, UniProt P05455 1-245, looked up)
chain: MAENGDNEKMAALEAKICHQIEYYFGDFNLPRDKFLKEQIKLDEGWVPLEIMIKFNRLNRLTTDFNVIVEALSKSKAELMEISEDKTKIRRSPSKPLPEVTDEYKNDVKNRSVYIKGFPTDATLDDIKEWLEDKGQVLNIQMRRTLHKAFKGSIFVVFDSIESAKKFVETPGQKYKETDLLILFKDDYFAKKNEERKQNKVEAKLRAKQEQEAKQKLEEDAEMKSLEEKIGCLLKFSGDLDDQTC
notes: La protein, human, residues 1-245 (lacks the Dim domain)
[1]
  binding result: binds

B2: mono cysteine mutant of La protein (La_C18A) (natural protein, human, UniProt P05455 1-408, looked up)
chain: MAENGDNEKMAALEAKIAHQIEYYFGDFNLPRDKFLKEQIKLDEGWVPLEIMIKFNRLNRLTTDFNVIVEALSKSKAELMEISEDKTKIRRSPSKPLPEVTDEYKNDVKNRSVYIKGFPTDATLDDIKEWLEDKGQVLNIQMRRTLHKAFKGSIFVVFDSIESAKKFVETPGQKYKETDLLILFKDDYFAKKNEERKQNKVEAKLRAKQEQEAKQKLEEDAEMKSLEEKIGCLLKFSGDLDDQTCREDLHILFSNHGEIKWIDFVRGAKEGIILFKEKAKEALGKAKDANNGNLQLRNKEVTWEVLEGEVEKEALKKIIEDQQESLNKWKSKGRRFKGKGKGNKAAQPGSGKGKVQFQGKKTKFASDDEHDEHDENGATGPVKRAREETDKEEPASKQQKTENGAGDQ
notes: La protein, human, with Cys18 changed to alanine; Runs as 50 kDa La protein
[2]
  binding result: binds

B3: double cysteine mutant of La protein (La_C232A_C245A) (natural protein, human, UniProt P05455 1-408, looked up)
chain: MAENGDNEKMAALEAKICHQIEYYFGDFNLPRDKFLKEQIKLDEGWVPLEIMIKFNRLNRLTTDFNVIVEALSKSKAELMEISEDKTKIRRSPSKPLPEVTDEYKNDVKNRSVYIKGFPTDATLDDIKEWLEDKGQVLNIQMRRTLHKAFKGSIFVVFDSIESAKKFVETPGQKYKETDLLILFKDDYFAKKNEERKQNKVEAKLRAKQEQEAKQKLEEDAEMKSLEEKIGALLKFSGDLDDQTAREDLHILFSNHGEIKWIDFVRGAKEGIILFKEKAKEALGKAKDANNGNLQLRNKEVTWEVLEGEVEKEALKKIIEDQQESLNKWKSKGRRFKGKGKGNKAAQPGSGKGKVQFQGKKTKFASDDEHDEHDENGATGPVKRAREETDKEEPASKQQKTENGAGDQ
notes: La protein, human, with Cys232 and Cys245 changed to alanine
[2]
  stoichiometry N: 2

B4: La 239-408 (domain or fragment, human, UniProt P05455 239-408, looked up)
chain: DLDDQTCREDLHILFSNHGEIKWIDFVRGAKEGIILFKEKAKEALGKAKDANNGNLQLRNKEVTWEVLEGEVEKEALKKIIEDQQESLNKWKSKGRRFKGKGKGNKAAQPGSGKGKVQFQGKKTKFASDDEHDEHDENGATGPVKRAREETDKEEPASKQQKTENGAGDQ
[1]
  binding result: binds

B5: LaN, C-terminally truncated La fragment aa1-192 (domain or fragment, human, UniProt P05455 1-192, looked up)
chain: MAENGDNEKMAALEAKICHQIEYYFGDFNLPRDKFLKEQIKLDEGWVPLEIMIKFNRLNRLTTDFNVIVEALSKSKAELMEISEDKTKIRRSPSKPLPEVTDEYKNDVKNRSVYIKGFPTDATLDDIKEWLEDKGQVLNIQMRRTLHKAFKGSIFVVFDSIESAKKFVETPGQKYKETDLLILFKDDYFAKK
notes: La protein, human, residues 1-192 (La motif plus RRM1 domain); also called La 1-192
[3]
  binding result: binds

## B6
[4]
  binding result: binds

B7: La 278-408 (domain or fragment, human, UniProt P05455 278-408, looked up)
chain: KAKEALGKAKDANNGNLQLRNKEVTWEVLEGEVEKEALKKIIEDQQESLNKWKSKGRRFKGKGKGNKAAQPGSGKGKVQFQGKKTKFASDDEHDEHDENGATGPVKRAREETDKEEPASKQQKTENGAGDQ
[1]
  binding result: binds

B8: La 1-371 (domain or fragment, human, UniProt P05455 1-371, looked up)
chain: MAENGDNEKMAALEAKICHQIEYYFGDFNLPRDKFLKEQIKLDEGWVPLEIMIKFNRLNRLTTDFNVIVEALSKSKAELMEISEDKTKIRRSPSKPLPEVTDEYKNDVKNRSVYIKGFPTDATLDDIKEWLEDKGQVLNIQMRRTLHKAFKGSIFVVFDSIESAKKFVETPGQKYKETDLLILFKDDYFAKKNEERKQNKVEAKLRAKQEQEAKQKLEEDAEMKSLEEKIGCLLKFSGDLDDQTCREDLHILFSNHGEIKWIDFVRGAKEGIILFKEKAKEALGKAKDANNGNLQLRNKEVTWEVLEGEVEKEALKKIIEDQQESLNKWKSKGRRFKGKGKGNKAAQPGSGKGKVQFQGKKTKFASDDEHD
notes: La protein, human, residues 1-371 (holds the Dim domain)
[1]
  binding result: binds
